Laboratory results from patent publication US20040146964.
Substitutions are numbered along the chain they refer to.

T1: C. elegans HIF-α homologue, wild type
T1 chain: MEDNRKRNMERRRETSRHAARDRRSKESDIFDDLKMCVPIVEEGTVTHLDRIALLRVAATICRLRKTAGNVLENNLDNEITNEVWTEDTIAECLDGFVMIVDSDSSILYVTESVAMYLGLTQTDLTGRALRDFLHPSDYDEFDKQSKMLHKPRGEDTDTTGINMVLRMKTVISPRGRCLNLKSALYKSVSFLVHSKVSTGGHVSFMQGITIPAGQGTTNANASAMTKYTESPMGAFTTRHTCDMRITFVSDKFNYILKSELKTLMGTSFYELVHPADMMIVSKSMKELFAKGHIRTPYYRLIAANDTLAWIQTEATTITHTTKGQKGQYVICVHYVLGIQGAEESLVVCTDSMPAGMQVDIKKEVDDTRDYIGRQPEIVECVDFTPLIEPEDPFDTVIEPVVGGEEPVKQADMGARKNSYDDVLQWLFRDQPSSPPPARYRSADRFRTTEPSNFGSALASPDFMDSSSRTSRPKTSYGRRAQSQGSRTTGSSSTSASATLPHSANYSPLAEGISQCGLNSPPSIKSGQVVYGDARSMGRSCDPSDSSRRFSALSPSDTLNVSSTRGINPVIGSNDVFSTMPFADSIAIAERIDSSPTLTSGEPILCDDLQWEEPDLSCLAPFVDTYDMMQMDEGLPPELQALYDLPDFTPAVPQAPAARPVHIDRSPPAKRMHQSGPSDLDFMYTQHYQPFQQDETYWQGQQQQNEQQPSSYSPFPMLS

T2: synthetic polypeptide of HIF-1α residues 556-574, unmodified
T2 chain: DLDLEMLAPYIPMDDDFQL

B1: recombinant C. elegans PHY-1 (protein)
chain: DLFTSIADMQNLLETERNIPKILDKYIHDEEERLVQLKKLSEEYSKKNEISIENGLKDITNPINAFLLIKRKIFDWKEIESKMNANKAGNVVSSITDDSYGVRYPTADDLSGAAIGLLRLQDTYRLDTKDLADGKIYADQGNYTFSAKDCFEIARAAYNEHDFYHTVMWMEEAQRRLGDEVEPTVEVEDILEYLAFALYKQNNLKHALKLTEELYKMNPTHPRAKGNVKWYEDLLEQEGVRRSDMRKNLPPIQNRRPDSVLGNTERTMYEALCRNEVPVSQKDISRLYCYYKRDRPFLVYAPIKVEIKRFNPLAVLFKDVISDDEVAAIQELAKPKLARATVHDSVTGKLVTATYRISKSAWLKEWEGDVVETVNKRIGYMTNLEMETAEELQIANYGIGGHYDPHFDHAKKEESKSFESLGTGNRIATVLFYMSQPSHGGGTVFTEAKSTILPTKNDALFWYNLYKQGDGNPDTRHAACPVLVGIKWVSNKWIHEKGNEFRRPCGLKSSDYERFVGDLGYGPEPRNAPNVSPNLAKDVWETL
B2: recombinant human type II prolyl 4-hydroxylase (protein)
chain 1: EFFTSIGHMTDLIYAEKELVQSLKEYILVEEAKLSKIKSWANKMEALTSKSAADAEGYLAHPVNAYKLVKRLNTDWPALEDLVLQDSAAGFIANLSVQRQFFPTDEDEIGAAKALMRLQDTYRLDPGTISRGELPGTKYQAMLSVDDCFGMGRSAYNEGDYYHTVLWMEQVLKQLDAGEEATTTKSQVLDYLSYAVFQLGDLHRALELTRRLLSLDPSHERAGGNLRYFEQLLEEEREKTLTNQTEAELATPEGIYERPVDYLPERDVYESLCRGEGVKLTPRRQKRLFCRYHHGNRAPQLLIAPFKEEDEWDSPHIVRYYDVMSDEEIERIKEIAKPKLARATVRDPKTGVLTVASYRVSKSSWLEEDDDPVVARVNRRMQHITGLTVKTAELLQVANYGVGGQYEPHFDFSRNDERDTFKHLGTGNRVATFLNYMSDVEAGGATVFPDLGAAIWPKKGTAVFWYNLLRSGEGDYRTRHAACPVLVGCKWVSNKWFHERGQEFLRPCGSTEVD
chain 2: not shown
B3: human PHD2 (protein)
chain: MANDSGGPGGPSPSERDRQYCELCGKMENLLRCSRCRSSFYCCKEHQRQDWKKHKLVCQGSEGALGHGVGPHQHSGPAPPAAVPPPRAGAREPRKAAARRDNASGDAAKGKVKAKPPADPAAAASPCRAAAGGQGSAVAAEAEPGKEEPPARSSLFQEKANLYPPSNTPGDALSPGGGLRPNGQTKPLPALKLALEYIVPCMNKHGICVVDDFLGKETGQQIGDEVRALHDTGKFTDGQLVSQKSDSSKDIRGDKITWIEGKEPGCETIGLLMSSMDDLIRHCNGKLGSYKINGRTKAMVACYPGNGTGYVRHVDNPNGDGRCVTCIYYLNKDWDAKVSGGILRIFPEGKAQFADIEPKFDRLLFFWSDRRNPHEVQPAYATRYAITVWYFDADERARAKVKYLTGEKGVRVELNKPSDSVGKDVF
B4: recombinant C. elegans PHY-2 (protein)
chain: DLFTAIADLQHMLGAEKDVTTIIDQYIEAERARLDDLRRYAHEYVHRNAHAESVGPEFVTNPINAYLLIKRLTTEWKKVENIMLNNKASTFLKNITDNRVRSEVKFPGEEDLSGAATALLRLQDTYSLDTLDLSNGIIGGEKVSNKLSGHDTFEVGRSAYNQKDYYHCLMWMQVALVKIENENPPTIEEWEILEYLAYSLYQQGNVRRALSLTKRLAKIAPNHPRAKGNVKWYEDMLQGKDMVGDLPPIVNKRVEYDGIVERDAYEALCRGEIPPVEPKWKNKLRCYLKRDKPFLKLAPIKVEILRFDPLAVLFKNVIHDSEIEVIKELASPKLKRATVQNSKTGELEHATYRISKSAWLKGDLDPVIDRVNRRIEDFTNLNQATSEELQVANYGLGGHYDPHFDFARKEEKNAFKTLNTGNRIATVLFYMSQPERGGATVFNHLGTAVFPSKNDALFWYNLRRDGEGDLRTRHAACPVLLGVKWVSNKWIHEKGQEFTRPCGLEEEVQENFIGDLSPYANDP
B5: rat SM-20, full length (protein)
chain: MPLGHIMRLDLEKIALEYIVPCLHEVGFCYLDNFLGEVVGDCVLERVKQLHYNGALRDGQLAGPRAGVSKRHLRGDQITWIGGNEEGCEAINFLLSLIDRLVLYCGSRLGKYYVKERSKAMVACYPGNGTGYVRHVDNPNGDGRCITCIYYLNKNWDAKLHGGVLRIFPEGKSFVADVEPIFDRLLFSWSDRRNPHEVQPSYATRYAMTVWYFDAEERAEAKKKFRNLTRKTESALAKD
B6: human PHD3 (protein)
chain: B5 chain with Y52C, N53T, N92S, V164I, V175I, S188F, A237T, K238E
B7: recombinant human type I prolyl 4-hydroxylase (protein)
chain 1: HPGFFTSIGQMTDLIHTEKDLVTSLKDYIKAEEDKLEQIKKWAEKLDRLTSTATKDPEGFVGHPVNAFKLMKRLNTEWSELENLVLKDMSDGFISNLTIQRQYFPNDEDQVGAAKALLRLQDTYNLDTDTISKGNLPGVKHKSFLTAEDCFELGKVAYTEADYYHTELWMEQALRQLDEGEISTIDKVSVLDYLSYAVYQQGDLDKALLLTKKLLELDPEHQRANGNLKYFEYIMAKEKDVNKSASDDQSDQKTTPKKKGVAVDYLPERQKYEMLCRGEGIKMTPRRQKKLFCRYHDGNRNPKFILAPAKQEDEWDKPRIIRFHDIISDAEIEIVKDLAKPRLRRATISNPITGDLETVHYRISKSAWLSGYENPVVSRINMRIQDLTGLDVSTAEELQVANYGVGGQYEPHFDFARKDEPDAFKELGTGNRIATWLFYMSDVSAGGATVFPEVGASVWPKKGTAVFWYNLFASGEGDYSTRHAACPVLVGNKWVSNKWLHERGQEFRRPCTLSELE
chain 2: not shown

What was measured:
[1] = target: T1, C. elegans HIF-α homologue, wild type
[2] = target: T2, synthetic polypeptide of HIF-1α …
[3] = target: human HIF-1α, full length wild type
[4] = target: full length HIF-1α double mutant P402A+P564G
full length HIF-1α double mutant P402A+P564G, sequence (chain, as listed by the source P402A P564G): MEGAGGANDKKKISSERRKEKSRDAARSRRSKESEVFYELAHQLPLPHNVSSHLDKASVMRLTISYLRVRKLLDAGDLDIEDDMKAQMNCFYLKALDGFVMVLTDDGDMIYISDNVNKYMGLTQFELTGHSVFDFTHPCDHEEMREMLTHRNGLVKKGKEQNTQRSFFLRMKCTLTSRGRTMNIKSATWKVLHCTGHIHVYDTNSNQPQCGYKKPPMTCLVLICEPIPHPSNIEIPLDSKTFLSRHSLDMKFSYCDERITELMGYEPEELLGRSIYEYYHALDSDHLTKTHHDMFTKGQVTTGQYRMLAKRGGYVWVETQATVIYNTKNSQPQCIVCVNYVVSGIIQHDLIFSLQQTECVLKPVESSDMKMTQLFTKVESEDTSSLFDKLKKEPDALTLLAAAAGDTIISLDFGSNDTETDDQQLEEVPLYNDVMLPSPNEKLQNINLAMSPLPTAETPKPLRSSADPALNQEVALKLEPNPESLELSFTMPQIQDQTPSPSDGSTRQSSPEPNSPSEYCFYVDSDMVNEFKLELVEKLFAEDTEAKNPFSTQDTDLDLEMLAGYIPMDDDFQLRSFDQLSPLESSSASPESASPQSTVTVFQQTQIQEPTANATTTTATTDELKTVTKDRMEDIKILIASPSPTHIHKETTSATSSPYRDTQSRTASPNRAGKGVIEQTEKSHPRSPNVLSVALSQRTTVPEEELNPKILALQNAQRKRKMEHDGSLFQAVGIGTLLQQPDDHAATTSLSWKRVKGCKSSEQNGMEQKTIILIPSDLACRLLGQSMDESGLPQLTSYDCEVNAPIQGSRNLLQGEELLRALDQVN

full length HIF-1α P402A, sequence (chain, as listed by the source P402A): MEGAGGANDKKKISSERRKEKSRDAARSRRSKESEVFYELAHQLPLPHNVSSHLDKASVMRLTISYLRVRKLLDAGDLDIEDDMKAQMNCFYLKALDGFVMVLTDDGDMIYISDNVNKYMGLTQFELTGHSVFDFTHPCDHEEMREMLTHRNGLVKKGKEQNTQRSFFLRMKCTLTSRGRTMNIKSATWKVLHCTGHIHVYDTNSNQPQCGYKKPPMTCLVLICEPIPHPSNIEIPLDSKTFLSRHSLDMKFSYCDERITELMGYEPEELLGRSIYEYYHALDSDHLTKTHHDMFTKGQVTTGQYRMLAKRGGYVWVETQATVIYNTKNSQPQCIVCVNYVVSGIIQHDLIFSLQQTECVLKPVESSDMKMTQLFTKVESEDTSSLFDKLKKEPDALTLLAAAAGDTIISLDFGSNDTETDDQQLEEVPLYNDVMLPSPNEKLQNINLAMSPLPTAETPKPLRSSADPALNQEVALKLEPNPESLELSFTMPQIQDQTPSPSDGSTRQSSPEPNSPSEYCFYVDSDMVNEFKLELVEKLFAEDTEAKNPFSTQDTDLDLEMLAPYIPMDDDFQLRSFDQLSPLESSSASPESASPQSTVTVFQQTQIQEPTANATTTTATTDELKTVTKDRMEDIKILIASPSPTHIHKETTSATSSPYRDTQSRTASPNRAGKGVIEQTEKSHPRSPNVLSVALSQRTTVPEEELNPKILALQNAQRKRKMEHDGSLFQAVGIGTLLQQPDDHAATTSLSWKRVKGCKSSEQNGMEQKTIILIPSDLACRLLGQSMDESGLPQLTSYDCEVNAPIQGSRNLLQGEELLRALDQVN
full length HIF-1α P564G, sequence (chain, as listed by the source P564G): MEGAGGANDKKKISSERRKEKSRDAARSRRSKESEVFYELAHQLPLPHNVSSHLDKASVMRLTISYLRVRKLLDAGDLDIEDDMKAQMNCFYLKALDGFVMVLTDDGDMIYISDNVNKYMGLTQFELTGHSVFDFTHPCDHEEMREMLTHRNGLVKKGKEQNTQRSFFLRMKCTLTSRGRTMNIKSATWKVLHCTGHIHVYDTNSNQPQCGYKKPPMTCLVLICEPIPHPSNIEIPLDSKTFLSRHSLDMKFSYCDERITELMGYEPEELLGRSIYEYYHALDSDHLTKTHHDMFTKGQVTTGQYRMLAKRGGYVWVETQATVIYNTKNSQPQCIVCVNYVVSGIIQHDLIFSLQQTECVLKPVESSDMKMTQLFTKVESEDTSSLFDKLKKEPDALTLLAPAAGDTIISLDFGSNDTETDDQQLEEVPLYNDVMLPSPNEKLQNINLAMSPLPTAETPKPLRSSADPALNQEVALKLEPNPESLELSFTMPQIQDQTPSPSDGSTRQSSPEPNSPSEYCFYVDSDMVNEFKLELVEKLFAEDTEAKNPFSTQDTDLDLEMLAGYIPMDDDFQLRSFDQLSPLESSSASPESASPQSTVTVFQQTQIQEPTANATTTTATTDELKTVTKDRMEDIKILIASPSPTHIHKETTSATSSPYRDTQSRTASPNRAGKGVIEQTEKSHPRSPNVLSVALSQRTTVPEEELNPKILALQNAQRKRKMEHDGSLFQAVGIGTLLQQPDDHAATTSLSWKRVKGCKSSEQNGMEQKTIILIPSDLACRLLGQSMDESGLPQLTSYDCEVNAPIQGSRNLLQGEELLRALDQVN

Protein	promotion of the HIFα/VHL E3 interaction (anti-HA IP with 786-0/VHL extract) [3]	promotion of VHL E3 capture (negative) [4]	promotion of VHL E3 capture via the C-terminal (P564) site (full length HIF-1α P402A)	also measured
B1	–	–	–	modification of HIF-1 read by HA.VHL-1 capture [1]: had no activity in these assays
B2	–	–	–	prolyl 4-hydroxylase activity (hydroxylation-coupled decarboxylation of 2-oxoglutarate) [2]: the HIF polypeptide showed no activity
B3	With full length wild-type HIF-1α, striking activity was observed with rat SM-20 and all three human gene products	No activity at all was observed with a double HIF-1α mutant, P402A P564G, that ablates both hydroxylation sites	interaction through the C-terminal site could be promoted by all enzymes	promotion of VHL E3 capture via the N-terminal (P402) site (full length HIF-1α P564G): VHL E3 capture was less efficient when only the N-terminal site (P402) was intact, and was only promoted by EGLN2 (PHD1) and EGLN1(PHD2)
B4	–	–	–	modification of HIF-1 read by HA.VHL-1 capture [1]: had no activity in these assays
B5	With full length wild-type HIF-1α, striking activity was observed with rat SM-20 and all three human gene products	No activity at all was observed with a double HIF-1α mutant, P402A P564G, that ablates both hydroxylation sites	interaction through the C-terminal site could be promoted by all enzymes	–
B6	With full length wild-type HIF-1α, striking activity was observed with rat SM-20 and all three human gene products	No activity at all was observed with a double HIF-1α mutant, P402A P564G, that ablates both hydroxylation sites	interaction through the C-terminal site could be promoted by all enzymes	–
B7	–	–	–	prolyl 4-hydroxylase activity (hydroxylation-coupled decarboxylation of 2-oxoglutarate) [2]: the HIF polypeptide showed no activity
